# Measured values published in the supplement of paper PMC5998384.
# Assays:
# HeLa Kyoto [1] = experiment: solubility in G1/S (NP-40 vs SDS abundance) (log2 ratio); higher = more soluble; settings: cell cycle stage: G1/S
# HeLa Kyoto [2] = experiment: melting temperature (median over replicates), in situ; higher = more thermally stable
# HeLa Kyoto [3] = experiment: solubility change mitosis vs G1/S (difference of NP-40 vs SDS log2 ratios) (log2 ratio difference); higher = more soluble in mitosis
# HeLa Kyoto [4] = experiment: thermal stability score vs G1/S (z-score of summed log2 fold changes over temperatures); higher = more thermally stable than in G1/S
# [5] = cell cycle stage: early G1 (4.5 h after nocodazole release)
# 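Wherever melting temperature (median over replicates), in situ is given: HeLa Kyoto cells synchronized by double thymidine or nocodazole block, proteins quantified by TMT10plex mass spectrometry, three independent biological replicates.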
# 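Wherever solubility change mitosis vs G1/S (difference of NP-40 vs SDS log2 ratios) is given: synchronized HeLa Kyoto cells (double thymidine block for G1/S, nocodazole release for mitosis), protein amounts in NP-40 versus SDS lysates quantified by mass spectrometry, three biological replicates.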
# 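Wherever solubility in G1/S (NP-40 vs SDS abundance) is given: HeLa Kyoto cells arrested at G1/S by double thymidine block, proteins quantified by TMT10plex mass spectrometry in mild NP-40 versus SDS extracts, three biological replicates.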
# 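Wherever thermal stability score vs G1/S (z-score of summed log2 fold changes over temperatures) is given: synchronized HeLa Kyoto cells, proteins quantified by TMT10plex mass spectrometry, three biological replicates, mitosis taken 0.5 h after nocodazole release, G1/S directly after double thymidine block.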
sequence,measurement,setting,value
MAAAYLDPNLNHTPNSSTKTHLGTGMERSPGAMERVLKVFHYFESNSEPTTWASIIRHGDATDVRGIIQKIVDSHKVKHVACYGFRLSHLRSEEVHWLHVDMGVSSVREKYELAHPPEEWKYELRIRYLPKGFLNQFTEDKPTLNFFYQQVKSDYMLEIADQVDQEIALKLGCLEIRRSYWEMRGNALEKKSNYEVLEKDVGLKRFFPKSLLDSVKAKTLRKLIQQTFRQFANLNREESILKFFEILSPVYRFDKECFKCALGSSWIISVELAIGPEEGISYLTDKGCNPTHLADFTQVQTIQYSNSEDKDRKGMLQLKIAGAPEPLTVTAPSLTIAENMADLIDGYCRLVNGTSQSFIIRPQKEGERALPSIPKLANSEKQGMRTHAVSVSETDDYAEIIDEEDTYTMPSTRDYEIQRERIELGRCIGEGQFGDVHQGIYMSPENPALAVAIKTCKNCTSDSVREKFLQEALTMRQFDHPHIVKLIGVITENPVWIIMELCTLGELRSFLQVRKYSLDLASLILYAYQLSTALAYLESKRFVHRDIAARNVLVSSNDCVKLGDFGLSRYMEDSTYYKASKGKLPIKWMAPESINFRRFTSASDVWMFGVCMWEILMHGVKPFQGVKNNDVIGRIENGERLPMPPNCPPTLYSLMTKCWAYDPSRRPRFTELKAQLSTILEEEKAQQEERMRMESRRQATVSWDSGGSDEAPPKPSRPGYPSPRSSEGFYPSPQHMVQTNHYQVSGYPGSHGITAMAGSIYPGQASLLDQTDSWNHRPQEIAMWQPNVEDSTVLDLRGIGQVLPTHLMEERLIRQQQEMEEDQRWLEKEERFLKPDVRLSRGSIDREDGSLQGPIGNQHIYQPVGKPDPAAPPKKPPRPGAPGHLGSLASLSSPADSYNEGVKLQPQEISPPPTANLDRSNDKVYENVTGLVKAVIEMSSKIQPAPPEEYVPMVKEVGLALRTLLATVDETIPLLPASTHREIEMAQKLLNSDLGELINKMKLAQQYVMTSLQQEYKKQMLTAAHALAVDAKNLLDVIDQARLKMLGQTRPH [PTK2],solubility in G1/S (log2),HeLa Kyoto [1],-0.0233
same,melting temperature,HeLa Kyoto [2]; cell cycle stage: G1/S,53 °C
same,melting temperature,HeLa Kyoto [2]; cell cycle stage: mitosis,53.2 °C
same,solubility change mitosis (log2),HeLa Kyoto [3],-0.0593
same,thermal stability score,HeLa Kyoto [4]; [5],0.562
same,thermal stability score,HeLa Kyoto [4]; cell cycle stage: mitosis,0.0674
MNFAEREGSKRYCIQTKHVAILCAVVVGVGLIVGLAVGLTRSCDSSGDGGPGTAPAPSHLPSSTASPSGPPAQDQDICPASEDESGQWKNFRLPDFVNPVHYDLHVKPLLEEDTYTGTVSISINLSAPTRYLWLHLRETRITRLPELKRPSGDQVQVRRCFEYKKQEYVVVEAEEELTPSSGDGLYLLTMEFAGWLNGSLVGFYRTTYTENGQVKSIVATDHEPTDARKSFPCFDEPNKKATYTISITHPKEYGALSNMPVAKEESVDDKWTRTTFEKSVPMSTYLVCFAVHQFDSVKRISNSGKPLTIYVQPEQKHTAEYAANITKSVFDYFEEYFAMNYSLPKLDKIAIPDFGTGAMENWGLITYRETNLLYDPKESASSNQQRVATVVAHELVHQWFGNIVTMDWWEDLWLNEGFASFFEFLGVNHAETDWQMRDQMLLEDVLPVQEDDSLMSSHPIIVTVTTPDEITSVFDGISYSKGSSILRMLEDWIKPENFQKGCQMYLEKYQFKNAKTSDFWAALEEASRLPVKEVMDTWTRQMGYPVLNVNGVKNITQKRFLLDPRANPSQPPSDLGYTWNIPVKWTEDNITSSVLFNRSEKEGITLNSSNPSGNAFLKINPDHIGFYRVNYEVATWDSIATALSLNHKTFSSADRASLIDDAFALARAQLLDYKVALNLTKYLKREENFLPWQRVISAVTYIISMFEDDKELYPMIEEYFQGQVKPIADSLGWNDAGDHVTKLLRSSVLGFACKMGDREALNNASSLFEQWLNGTVSLPVNLRLLVYRYGMQNSGNEISWNYTLEQYQKTSLAQEKEKLLYGLASVKNVTLLSRYLDLLKDTNLIKTQDVFTVIRYISYNSYGKNMAWNWIQLNWDYLVNRYTLNNRNLGRIVTIAEPFNTELQLWQMESFFAKYPQAGAGEKPREQVLETVKNNIEWLKQHRNTIREWFFNLLESG [ENPEP],solubility in G1/S (log2),HeLa Kyoto [1],-0.159
same,melting temperature,HeLa Kyoto [2]; cell cycle stage: G1/S,57.4 °C
same,melting temperature,HeLa Kyoto [2]; cell cycle stage: mitosis,55.9 °C
same,solubility change mitosis (log2),HeLa Kyoto [3],0.193
same,thermal stability score,HeLa Kyoto [4]; [5],-1.64
same,thermal stability score,HeLa Kyoto [4]; cell cycle stage: mitosis,-0.842
MDYRRLLMSRVVPGQFDDADSSDSENRDLKTVKEKDDILFEDLQDNVNENGEGEIEDEEEEGYDDDDDDWDWDEGVGKLAKGYVWNGGSNPQANRQTSDSSSAKMSTPADKVLRKFENKINLDKLNVTDSVINKVTEKSRQKEADMYRIKDKADRATVEQVLDPRTRMILFKMLTRGIITEINGCISTGKEANVYHASTANGESRAIKIYKTSILVFKDRDKYVSGEFRFRHGYCKGNPRKMVKTWAEKEMRNLIRLNTAEIPCPEPIMLRSHVLVMSFIGKDDMPAPLLKNVQLSESKARELYLQVIQYMRRMYQDARLVHADLSEFNMLYHGGGVYIIDVSQSVEHDHPHALEFLRKDCANVNDFFMRHSVAVMTVRELFEFVTDPSITHENMDAYLSKAMEIASQRTKEERSSQDHVDEEVFKRAYIPRTLNEVKNYERDMDIIMKLKEEDMAMNAQQDNILYQTVTGLKKDLSGVQKVPALLENQVEERTCSDSEDIGSSECSDTDSEEQGDHARPKKHTTDPDIDKKERKKMVKEAQREKRKNKIPKHVKKRKEKTAKTKKGK [RIOK1],solubility in G1/S (log2),HeLa Kyoto [1],-0.18
same,melting temperature,HeLa Kyoto [2]; cell cycle stage: G1/S,52.3 °C
same,melting temperature,HeLa Kyoto [2]; cell cycle stage: mitosis,54.8 °C
same,solubility change mitosis (log2),HeLa Kyoto [3],0.0777
same,thermal stability score,HeLa Kyoto [4]; [5],1.87
same,thermal stability score,HeLa Kyoto [4]; cell cycle stage: mitosis,1.28
MADSRDPASDQMQHWKEQRAAQKADVLTTGAGNPVGDKLNVITVGPRGPLLVQDVVFTDEMAHFDRERIPERVVHAKGAGAFGYFEVTHDITKYSKAKVFEHIGKKTPIAVRFSTVAGESGSADTVRDPRGFAVKFYTEDGNWDLVGNNTPIFFIRDPILFPSFIHSQKRNPQTHLKDPDMVWDFWSLRPESLHQVSFLFSDRGIPDGHRHMNGYGSHTFKLVNANGEAVYCKFHYKTDQGIKNLSVEDAARLSQEDPDYGIRDLFNAIATGKYPSWTFYIQVMTFNQAETFPFNPFDLTKVWPHKDYPLIPVGKLVLNRNPVNYFAEVEQIAFDPSNMPPGIEASPDKMLQGRLFAYPDTHRHRLGPNYLHIPVNCPYRARVANYQRDGPMCMQDNQGGAPNYYPNSFGAPEQQPSALEHSIQYSGEVRRFNTANDDNVTQVRAFYVNVLNEEQRKRLCENIAGHLKDAQIFIQKKAVKNFTEVHPDYGSHIQALLDKYNAEKPKNAIHTFVQSGSHLAAREKANL [CAT],solubility in G1/S (log2),HeLa Kyoto [1],0.174
same,melting temperature,HeLa Kyoto [2]; cell cycle stage: G1/S,58.2 °C
same,melting temperature,HeLa Kyoto [2]; cell cycle stage: mitosis,57.9 °C
same,solubility change mitosis (log2),HeLa Kyoto [3],-0.000938
same,thermal stability score,HeLa Kyoto [4]; [5],-2.19
same,thermal stability score,HeLa Kyoto [4]; cell cycle stage: mitosis,-2.27
MNAARTGYRVFSANSTAACTELAKRITERLGAELGKSVVYQETNGETRVEIKESVRGQDIFIIQTIPRDVNTAVMELLIMAYALKTACARNIIGVIPYFPYSKQSKMRKRGSIVCKLLASMLAKAGLTHIITMDLHQKEIQGFFSFPVDNLRASPFLLQYIQEEIPNYRNAVIVAKSPDAAKRAQSYAERLRLGLAVIHGEAQCTELDMDDGRHSPPMVKNATVHPGLELPLMMAKEKPPITVVGDVGGRIAIIVDDIIDDVESFVAAAEILKERGAYKIYVMATHGILSAEAPRLIEESSVDEVVVTNTVPHEVQKLQCPKIKTVDISLILSEAIRRIHNGESMAYLFRNITVDD [PRPSAP1],solubility in G1/S (log2),HeLa Kyoto [1],0.0529
same,melting temperature,HeLa Kyoto [2]; cell cycle stage: G1/S,55.6 °C
same,melting temperature,HeLa Kyoto [2]; cell cycle stage: mitosis,54.6 °C
same,solubility change mitosis (log2),HeLa Kyoto [3],-0.211
same,thermal stability score,HeLa Kyoto [4]; [5],-0.299
same,thermal stability score,HeLa Kyoto [4]; cell cycle stage: mitosis,-2.79
MAAGGDHGSPDSYRSPLASRYASPEMCFVFSDRYKFRTWRQLWLWLAEAEQTLGLPITDEQIQEMKSNLENIDFKMAAEEEKRLRHDVMAHVHTFGHCCPKAAGIIHLGATSCYVGDNTDLIILRNALDLLLPKLARVISRLADFAKERASLPTLGFTHFQPAQLTTVGKRCCLWIQDLCMDLQNLKRVRDDLRFRGVKGTTGTQASFLQLFEGDDHKVEQLDKMVTEKAGFKRAFIITGQTYTRKVDIEVLSVLASLGASVHKICTDIRLLANLKEMEEPFEKQQIGSSAMPYKRNPMRSERCCSLARHLMTLVMDPLQTASVQWFERTLDDSANRRICLAEAFLTADTILNTLQNISEGLVVYPKVIERRIRQELPFMATENIIMAMVKAGGSRQDCHEKIRVLSQQAASVVKQEGGDNDLIERIQVDAYFSPIHSQLDHLLDPSSFTGRASQQVQRFLEEEVYPLLKPYESVMKVKAELCL [ADSL],solubility in G1/S (log2),HeLa Kyoto [1],0.108
same,melting temperature,HeLa Kyoto [2]; cell cycle stage: G1/S,57.2 °C
same,melting temperature,HeLa Kyoto [2]; cell cycle stage: mitosis,57.8 °C
same,solubility change mitosis (log2),HeLa Kyoto [3],-0.138
same,thermal stability score,HeLa Kyoto [4]; [5],-1.75
same,thermal stability score,HeLa Kyoto [4]; cell cycle stage: mitosis,-1.49
MQWLRVRESPGEATGHRVTMGTAALGPVWAALLLFLLMCEIPMVELTFDRAVASGCQRCCDSEDPLDPAHVSSASSSGRPHALPEIRPYINITILKGDKGDPGPMGLPGYMGREGPQGEPGPQGSKGDKGEMGSPGAPCQKRFFAFSVGRKTALHSGEDFQTLLFERVFVNLDGCFDMATGQFAAPLRGIYFFSLNVHSWNYKETYVHIMHNQKEAVILYAQPSERSIMQSQSVMLDLAYGDRVWVRLFKRQRENAIYSNDFDTYITFSGHLIKAEDD [C1QTNF6],solubility in G1/S (log2),HeLa Kyoto [1],0.0492
same,melting temperature,HeLa Kyoto [2]; cell cycle stage: mitosis,55 °C
same,solubility change mitosis (log2),HeLa Kyoto [3],-0.235
same,thermal stability score,HeLa Kyoto [4]; [5],0.27
same,thermal stability score,HeLa Kyoto [4]; cell cycle stage: mitosis,-0.884
